{
  "source": "paper PMC4721540",
  "about": "“Selective activators of protein phosphatase 5 target the auto-inhibitory mechanism” (Bioscience Reports, 2015)",
  "binders": {"B1": {"name": "C-terminal Hsp90/DAF-21 peptide (AEEDASRMEEVD) (peptide)", "peptide": "AEEDASRMEEVD", "notes": "C-terminal peptide of Hsp90/DAF-21 of C. elegans; also called MEEVD peptide; MEEVD-containing peptide; source: bought: Biomatik"}, "B2": {"name": "PPH-5 (protein phosphatase homologue), PP5 from nematode origin (enzyme, C. elegans, UniProt Q9NES8 1-496, looked up)", "chain": "MAATITDDIVATVLESIEEKSYEDEKEKAGMIKDEANQFFKDQVYDVAADLYSVAIEIHPTAVLYGNRAQAYLKKELYGSALEDADNAIAIDPSYVKGFYRRATANMALGRFKKALTDYQAVVKVCPNDKDARAKFDECSKIVRRQKFEAAISTDHDKKTVAETLDINAMAIEDSYDGPRLEDKITKEFVLQLIKTFKNQQKLHKKYAFKMLLEFYNYVKSLPTMVEITVPTGKKFTICGDVHGQFYDLCNIFEINGYPSETNPYLFNGDFVDRGSFSVETIFTMIGFKLLYPNHFFMSRGNHESDVMNKMYGFEGEVKAKYTQQMCDMFTETFCWLPLCHLINEKIFVCHGGLFKEDGVTLEDIRKTDRNRQPPDEGIMCDLLWSDPQPINGRSPSKRGVGCQFGPDVTSKWCETNGIEYVVRSHEVKPEGYEMHHNGQCFTVFSAPNYCDQMNNKGAFITITGDNLTPRFTPFDAVPHPKLPPMAYANSLFGFN", "notes": "PPH-5, the protein phosphatase 5 homologue of C. elegans; also called nematode PPH-5; PPH-5 (C. elegans); source: cloning and purification as described before [32-35]"}},
  "key": {"[1]": {"target": "B2", "test": "AUC; sedimentation velocity with fluorescence detection; 300 nM labelled YFP–Hsp90, 3 μM PPH-5; 40 mM HEPES/KOH, pH 7.5, 20 mM KCl, 1 mM DTT; 20°C, 142000 g, 12 h; P5SAs at maximal soluble concentrations or 60 μM C-terminal Hsp90/DAF-21 peptide added where indicated", "settings": "both partners purified"}, "YFP-CeHsp90/DAF-21": {"target": "T1, YFP-CeHsp90/DAF-21 (C. elegans, UniProt Q18688 1-702)", "T1 construct": "Hsp90 of C. elegans (CeHsp90/DAF-21); Detected in the AUC by YFP fluorescence; also called YFP–Hsp90; YFP-tagged Hsp90; source: cloning and purification as described before [32-35]", "test": "AUC; sedimentation velocity with fluorescence detection; 300 nM labelled YFP–Hsp90, 3 μM PPH-5; 40 mM HEPES/KOH, pH 7.5, 20 mM KCl, 1 mM DTT; 20°C, 142000 g, 12 h; P5SAs at maximal soluble concentrations or 60 μM C-terminal Hsp90/DAF-21 peptide added where indicated", "settings": "both partners purified"}},
  "data": [
    {"binder": "B1", "values": [
      {"measurement": "binding result", "setting": "[1]", "value": "binds"}
    ]},
    {"binder": "B2", "values": [
      {"measurement": "binding result", "setting": "YFP-CeHsp90/DAF-21", "value": "binds"}
    ]}
  ]
}
